Measured values taken from patent US20150376260A1.

Columns and labels:
[1] = biological target: CD80 (B7.1), human, on lymphatic cancer cell lines (human) (UniProt P33681); experiment: cell-based or functional assay
[2] = biological target: CD86 (B7.2), human, on lymphatic cancer cell lines (human) (UniProt P42081); experiment: cell-based or functional assay
UniProt P42081, sequence (P42081 24-329): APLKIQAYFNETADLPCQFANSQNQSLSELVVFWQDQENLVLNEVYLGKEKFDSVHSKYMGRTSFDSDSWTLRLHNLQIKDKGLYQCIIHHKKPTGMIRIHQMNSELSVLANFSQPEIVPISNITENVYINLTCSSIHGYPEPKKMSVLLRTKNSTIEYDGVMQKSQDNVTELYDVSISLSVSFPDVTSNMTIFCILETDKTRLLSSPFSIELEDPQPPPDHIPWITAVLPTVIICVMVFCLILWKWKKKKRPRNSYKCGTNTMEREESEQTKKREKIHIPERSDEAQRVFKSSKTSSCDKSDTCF

UniProt P33681, sequence (P33681 35-288): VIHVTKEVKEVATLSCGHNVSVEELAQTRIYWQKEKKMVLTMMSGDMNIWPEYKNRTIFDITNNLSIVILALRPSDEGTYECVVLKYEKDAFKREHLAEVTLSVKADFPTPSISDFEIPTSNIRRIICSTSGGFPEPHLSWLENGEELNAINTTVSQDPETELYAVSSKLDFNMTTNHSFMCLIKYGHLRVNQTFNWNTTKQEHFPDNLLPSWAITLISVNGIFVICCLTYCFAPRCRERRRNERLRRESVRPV

CTLA4-FasL fusion protein was tested, and the cancer killing activity (in-vitro bioassay, MTS cell viability) on lymphatic cancer cells [1] was 0.02 nM and the cancer killing activity (in-vitro bioassay, MTS cell viability) on lymphatic cancer cells [2] was 0.02 nM.
